Reference: patent publication US10286050B2 (The United States of America, as represented by the …, priority 2013, dated 2019)
Entries after “also recorded” stand apart in the source; their conditions may differ.

How the values were obtained:
[1] = Storage stability of vialed product; type: physicochemical
Method: Stability and Storage: KLH-HMW is stable for at least 12 months when stored at 2 to 8° C.
Stability and Storage: The finished injectable dosage forms are stored in the freezer (−70′C) for long-term storage. Intact vials are stable for at least 6 months when stored at controlled room temperature (15° C.-30° C.) or in the refrigerator (2° C.-8° C.), and for at least 36 months when stored in the freezer (−10° C. to −25° C. and −70° C.). The peptide vial contains no preservatives; once the peptide vial is entered, unused peptide solution is discarded after 3 hours.
Stability and Storage: The finished injectable dosage forms are stored in the freezer (−70° C.) for long-term storage. Intact vials are stable for at least 6 months when stored at controlled room temperature (15° C.-30° C.), at least 9 months when stored in the refrigerator (2° C.-8° C.), and for at least 36 months when stored in the freezer (−10° C. to −25° C. and −70° C.). The peptide vial contains no preservatives; once the peptide vial is entered, unused peptide solution is discarded after 3 hours.

HLA-A2 = HLA-A2 (Homo sapiens, UniProt P04439, D140Y/D185E/D98H/E176V/E277Q/G131W/G231S/I119V/I121R/I166T/I218V/L300P/L318F/N151K/N90K/P208A/P217A/Q86G/Q94H/R138H/R169H/T345S); settings: cited from earlier work
[2] = tested on: A2K^b transgenic mice (expressing human HLA-A*0201); settings: cited from earlier work
human T cells = settings: cited from earlier work; for recognition of peptide-pulsed targets by peptide-specific human T cells: human T cells specific for the named peptide
[3] = controlled room temperature (15° C.-30° C.)
[4] = freezer (−10° C. to −25° C. and −70° C.)

Row | Sequence | stability of intact vials [1, 3] | stability of intact vials [1, 4] | stability of intact vials ([1]; refrigerator (2° C.-8° C.)) | change of binding affinity to HLA-A2 by epitope enhancement (HLA-A2; amino acid substitution versus wild-type peptide) | percentage of TARP-specific CD8+ T cells ([2]; A2K^b transgenic mice, versus wild type sequence) | recognition of peptide-pulsed targets by peptide-specific human T cells (human T cells) | immunogenicity in human T cells (human T cells; human cells) | binding affinity relative to TARP 29-37 (HLA-A2; HLA-A2 epitopes, fold greater than TARP 29-37) [times] | level of CD8+ T cell response ([2]; A2K^b transgenic mice) | immunogenicity in A2K^b transgenic mice ([2]; dendritic cells pulsed with the peptides or DNA encoding the peptides)
1 | FLRNFSLMV [TARP 29-37-9V] | at least 6 months | at least 36 months | at least 9 months | lower binding affinity to HLA-A2 than TARP29-37-3A; also recorded: did enhance the binding affinity compared with the wild-type peptide | higher percentage of TARP-specific CD8^+ T cells than the wild type sequence | recognized targets pulsed with all three peptides equally well | immunogenic | – | – | –
2 | FVFLRNFSL [TARP 27-35] | at least 6 months | at least 36 months | at least 6 months | – | – | recognized targets pulsed with that sequence | – | 10 | higher level of CD8+ T cell response than TARP29-37 | immunogenic
